T1: SIX6OS1N (human SIX6OS1 amino acids 1 to 67) (human, UniProt Q8N1H7 1-67)
T1 construct: Protein SIX6OS1, human, amino acids 1 to 67; also called SIX6OS1 1–67; source: E. coli BL21(DE3), co-expressed with SYCE1 constructs, purified as complex (MBP removed by TEV); not shown: MBP, N-terminal, cleaved
T1 sequence (looked up): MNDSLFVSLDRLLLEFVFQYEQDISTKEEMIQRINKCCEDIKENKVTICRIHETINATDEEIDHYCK


Tests used:
[1] = target: the molecule itself; assay: SEC-MALS; 5 to 20 mg/ml in 20 mM tris (pH 8.0), 150 mM KCl, 2 mM DTT; Superdex 200 Increase 10/300 GL at 0.5 ml/min
[2] = target: T1, SIX6OS1N (human SIX6OS1 amino acids 1 …); assay: as above; settings: both partners purified

Row | Binder | binding result [1] | stoichiometry N [2] | stoichiometry N [1]
1 | SYCE1core (human SYCE1 amino acids 25 to 179) (domain or fragment, UniProt Q8N0S2 25-179, looked up, Synaptonemal complex central element protein 1 (SYCE1), human, amino acids 25 to 179, numbers relative to the canonical 351-amino acid isoform; also called SYCE1 structural core; SYCE1 25–179; source: co-expressed with SIX6OS1N for the complex) GQDTSSQKIEDLMEMVQKLQKVGSLEPRVEVLINRINEVQQAKKKANKDLGEARTICEALQKELDSLHGEKVHLKEILSKKQETLRILRLHCQEKESEAHRKHTMLQECKERISALNLQIEEEKNKQRQLRLAFEEQLEDLMGQHKDLWDFHMPE | binds | 1 | –
2 | SYCE1POF (human SYCE1 amino acids 1 to 240, truncated product of the POF mutation c.613C>T, p.Gln241*) (domain or fragment, UniProt Q8N0S2 1-240, looked up, SYCE1, human, amino acids 1 to 240, relative to the canonical 351-amino acid isoform; product of the premature stop codon p.Gln241*; The purified material held about equal amounts of the full protein and a degradation product; source: also co-expressed with SIX6OS1N) MAGRSLTSKAEPTAGAVDRAEKAGGQDTSSQKIEDLMEMVQKLQKVGSLEPRVEVLINRINEVQQAKKKANKDLGEARTICEALQKELDSLHGEKVHLKEILSKKQETLRILRLHCQEKESEAHRKHTMLQECKERISALNLQIEEEKNKQRQLRLAFEEQLEDLMGQHKDLWDFHMPERLAKEICALDSSKEQLLKEEKLVKATLEDVKHQLCSLCGAEGPSTLDEGLFLRSQEAAATV | – | 1 | 2
3 | full-length SYCE1 (human) (natural protein, UniProt Q8N0S2 1-351, looked up, SYCE1, human, full length; canonical 351-amino acid isoform; source: E. coli BL21(DE3), purified; co-expressed with SIX6OS1N for the complex) MAGRSLTSKAEPTAGAVDRAEKAGGQDTSSQKIEDLMEMVQKLQKVGSLEPRVEVLINRINEVQQAKKKANKDLGEARTICEALQKELDSLHGEKVHLKEILSKKQETLRILRLHCQEKESEAHRKHTMLQECKERISALNLQIEEEKNKQRQLRLAFEEQLEDLMGQHKDLWDFHMPERLAKEICALDSSKEQLLKEEKLVKATLEDVKHQLCSLCGAEGPSTLDEGLFLRSQEAAATVQLFQEEHRKAEELLAAAAQRHQQLQQKCQQQQQKRQRLKEELEKHGMQVPAQAQSTQEEEAGPGDVASPKPLKGERPGAAHQAGPDVLIGQEDTLHPDLSPRGFQEIKELF | – | 1 | –

Reference: PMC7467691, “Meiotic chromosome synapsis depends on multivalent SYCE1-SIX6OS1 interactions that are disrupted in cases of human infertility” (Science Advances, 2020)
